Data published in paper PMC9482650, “Quantitative fragmentomics allow affinity mapping of interactomes” (Nature Communications, 2022).

T1: APBA2_2, Q99767
T1 sequence (Q99767 654-744, limits assumed, looked up): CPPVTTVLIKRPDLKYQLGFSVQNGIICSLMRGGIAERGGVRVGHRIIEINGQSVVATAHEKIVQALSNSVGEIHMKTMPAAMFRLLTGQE

T2: ARHGAP21, Q5T5U3
T2 sequence (Q5T5U3 45-169, limits assumed, looked up): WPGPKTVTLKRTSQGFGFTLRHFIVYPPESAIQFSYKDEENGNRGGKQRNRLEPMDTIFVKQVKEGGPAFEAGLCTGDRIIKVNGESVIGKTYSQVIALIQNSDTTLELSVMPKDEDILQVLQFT

T3: PDZD2_2, O15018
T3 sequence (O15018 329-429, limits assumed, looked up): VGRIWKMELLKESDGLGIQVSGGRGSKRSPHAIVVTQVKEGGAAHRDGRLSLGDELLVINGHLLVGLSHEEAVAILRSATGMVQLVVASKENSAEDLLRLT

T4: RADIL, Q96JH8
T4 sequence (Q96JH8 971-1071, limits assumed, looked up): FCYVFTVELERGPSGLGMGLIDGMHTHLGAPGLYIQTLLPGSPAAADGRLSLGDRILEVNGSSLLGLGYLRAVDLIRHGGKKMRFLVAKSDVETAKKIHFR

T5: SHANK1, Q9Y566
T5 sequence (Q9Y566 658-767, limits assumed, looked up): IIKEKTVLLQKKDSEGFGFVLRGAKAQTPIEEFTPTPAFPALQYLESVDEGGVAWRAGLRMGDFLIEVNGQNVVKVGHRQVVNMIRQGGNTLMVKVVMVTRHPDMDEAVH

T6: SNTB1, Q13884
T6 sequence (Q13884 107-205, limits assumed, looked up): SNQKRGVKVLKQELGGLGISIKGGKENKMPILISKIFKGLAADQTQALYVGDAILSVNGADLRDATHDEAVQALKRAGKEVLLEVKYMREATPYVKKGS


What was measured:
Assay in all cases: holdup assay
Design in all cases: key: below the threshold = too weak to quantify, mostly under pKd 3.1 to 4
Conditions in all cases: plain residues with an end cap or a label only (N-terminal biotin on a linker: ado-ado)
APBA2_2, Q99767 = target: T1, APBA2_2, Q99767
ARHGAP21, Q5T5U3 = target: T2, ARHGAP21, Q5T5U3
DLG1_2, Q12959 = target: DLG1_2, Q12959
Sequence of DLG1_2, Q12959 (Q12959 314-412): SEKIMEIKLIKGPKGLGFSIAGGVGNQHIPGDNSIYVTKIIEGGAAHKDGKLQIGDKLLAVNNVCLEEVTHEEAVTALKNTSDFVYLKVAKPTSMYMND

DLG2_3, Q15700 = target: DLG2_3, Q15700
DLG4_1, P78352 = target: DLG4_1, P78352
Sequence of DLG4_1, P78352 (P78352 62-152): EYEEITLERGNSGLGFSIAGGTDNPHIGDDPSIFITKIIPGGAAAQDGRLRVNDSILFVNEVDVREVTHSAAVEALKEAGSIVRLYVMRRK

DLG4_2, P78352 = target: DLG4_2, P78352
Sequence of DLG4_2, P78352 (P78352 155-259): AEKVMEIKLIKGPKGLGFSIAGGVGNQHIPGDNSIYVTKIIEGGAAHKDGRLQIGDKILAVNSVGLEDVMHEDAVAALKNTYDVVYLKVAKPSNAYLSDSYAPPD

DLG4_3, P78352 = target: DLG4_3, P78352
Sequence of DLG4_3, P78352 (P78352 306-403): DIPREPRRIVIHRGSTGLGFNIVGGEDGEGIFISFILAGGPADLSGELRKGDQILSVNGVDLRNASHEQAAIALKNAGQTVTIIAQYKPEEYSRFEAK

FRMPD4, Q14CM0 = target: FRMPD4, Q14CM0
Sequence of FRMPD4, Q14CM0 (Q14CM0 67-160): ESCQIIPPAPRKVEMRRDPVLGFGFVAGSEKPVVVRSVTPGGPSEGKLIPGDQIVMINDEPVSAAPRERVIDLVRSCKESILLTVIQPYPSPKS

GIPC2, Q8TF65 = target: GIPC2, Q8TF65
Sequence of GIPC2, Q8TF65 (Q8TF65 112-203): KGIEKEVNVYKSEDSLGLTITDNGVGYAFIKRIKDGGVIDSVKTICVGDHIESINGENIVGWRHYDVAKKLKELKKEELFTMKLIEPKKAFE

GORASP2, Q9H8Y8 = target: GORASP2, Q9H8Y8
GRASP, Q7Z6J2 = target: GRASP, Q7Z6J2
Sequence of GRASP, Q7Z6J2 (Q7Z6J2 96-193): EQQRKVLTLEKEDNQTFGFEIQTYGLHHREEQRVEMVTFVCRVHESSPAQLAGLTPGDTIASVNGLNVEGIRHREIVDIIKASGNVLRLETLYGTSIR

GRID2IP_2, A4D2P6 = target: GRID2IP_2, A4D2P6
Sequence of GRID2IP_2, A4D2P6 (A4D2P6 272-370): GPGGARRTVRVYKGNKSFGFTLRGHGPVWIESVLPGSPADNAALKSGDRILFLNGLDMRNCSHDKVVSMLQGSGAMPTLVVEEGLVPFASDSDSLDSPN

GRIP2_5, Q9C0E4 = target: GRIP2_5, Q9C0E4
Sequence of GRIP2_5, Q9C0E4 (Q9C0E4 544-642): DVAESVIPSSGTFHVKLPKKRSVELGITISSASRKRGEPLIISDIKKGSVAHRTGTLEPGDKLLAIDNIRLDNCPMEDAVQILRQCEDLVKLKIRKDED

HTRA1, Q92743 = target: HTRA1, Q92743
Sequence of HTRA1, Q92743 (Q92743 360-477): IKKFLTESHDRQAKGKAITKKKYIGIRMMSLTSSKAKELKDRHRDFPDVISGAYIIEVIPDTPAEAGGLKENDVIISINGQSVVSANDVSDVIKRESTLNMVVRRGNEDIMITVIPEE

HTRA2, O43464 = target: HTRA2, O43464
Sequence of HTRA2, O43464 (O43464 355-458): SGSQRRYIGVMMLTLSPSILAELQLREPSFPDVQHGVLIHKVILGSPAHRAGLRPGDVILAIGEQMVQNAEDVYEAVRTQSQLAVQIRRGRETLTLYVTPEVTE

IL16_1, Q14005 = target: IL16_1, Q14005
Sequence of IL16_1, Q14005 (Q14005 210-306): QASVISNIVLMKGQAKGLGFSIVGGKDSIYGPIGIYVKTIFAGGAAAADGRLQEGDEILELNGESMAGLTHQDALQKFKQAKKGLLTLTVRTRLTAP

IL16_4, Q14005 = target: IL16_4, Q14005
Sequence of IL16_4, Q14005 (Q14005 1229-1329): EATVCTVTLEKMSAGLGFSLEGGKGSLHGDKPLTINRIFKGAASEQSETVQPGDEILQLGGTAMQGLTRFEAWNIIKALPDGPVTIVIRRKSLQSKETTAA

Inadl_1, Q8NI35 = target: Inadl_1, Q8NI35
Sequence of Inadl_1, Q8NI35 (Q8NI35 113-229): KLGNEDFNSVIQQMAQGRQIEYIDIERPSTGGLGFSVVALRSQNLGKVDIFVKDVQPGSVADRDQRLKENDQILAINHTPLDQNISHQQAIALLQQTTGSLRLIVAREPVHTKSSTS

Inadl_10, Q8NI35 = target: Inadl_10, Q8NI35
Sequence of Inadl_10, Q8NI35 (Q8NI35 1673-1763): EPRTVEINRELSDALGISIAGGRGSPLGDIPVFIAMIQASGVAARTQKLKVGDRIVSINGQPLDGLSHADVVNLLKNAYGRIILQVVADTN

Inadl_6, Q8NI35 = target: Inadl_6, Q8NI35
Sequence of Inadl_6, Q8NI35 (Q8NI35 1058-1167): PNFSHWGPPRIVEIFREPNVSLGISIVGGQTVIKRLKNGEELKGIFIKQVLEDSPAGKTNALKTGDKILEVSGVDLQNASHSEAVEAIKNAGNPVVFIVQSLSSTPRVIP

LAP2, Q96RT1 = target: LAP2, Q96RT1
Sequence of LAP2, Q96RT1 (Q96RT1 other isoform, or with tags, fused parts or gaps): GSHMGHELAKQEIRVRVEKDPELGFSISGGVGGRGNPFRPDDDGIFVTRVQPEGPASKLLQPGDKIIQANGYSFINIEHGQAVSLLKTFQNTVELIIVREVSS

LNX1_2, Q8TBB1 = target: LNX1_2, Q8TBB1
Sequence of LNX1_2, Q8TBB1 (Q8TBB1 371-470): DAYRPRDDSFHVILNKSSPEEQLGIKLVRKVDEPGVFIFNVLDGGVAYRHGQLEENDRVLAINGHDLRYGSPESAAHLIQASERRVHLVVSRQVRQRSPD

LNX1_3, Q8TBB1 = target: LNX1_3, Q8TBB1
Sequence of LNX1_3, Q8TBB1 (Q8TBB1 500-596): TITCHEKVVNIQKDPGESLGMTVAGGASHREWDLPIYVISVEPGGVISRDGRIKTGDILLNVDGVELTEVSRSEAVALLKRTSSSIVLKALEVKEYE

MAGI2_4, Q86UL8 = target: MAGI2_4, Q86UL8
Sequence of MAGI2_4, Q86UL8 (Q86UL8 772-865): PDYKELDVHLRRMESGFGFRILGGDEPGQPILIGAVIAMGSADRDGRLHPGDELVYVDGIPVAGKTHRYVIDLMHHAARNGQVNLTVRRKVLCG

MAGI2_5, Q86UL8 = target: MAGI2_5, Q86UL8
Sequence of MAGI2_5, Q86UL8 (Q86UL8 915-1017): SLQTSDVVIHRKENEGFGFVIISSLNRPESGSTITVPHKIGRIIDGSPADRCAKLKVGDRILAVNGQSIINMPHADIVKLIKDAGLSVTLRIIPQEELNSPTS

MAGI3_2, Q5TCQ9 = target: MAGI3_2, Q5TCQ9
Sequence of MAGI3_2, Q5TCQ9 (Q5TCQ9 398-503): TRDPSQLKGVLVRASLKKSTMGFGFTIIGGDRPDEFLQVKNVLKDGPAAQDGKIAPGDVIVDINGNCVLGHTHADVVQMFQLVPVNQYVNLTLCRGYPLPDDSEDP

MAST1, Q9Y2H9 = target: MAST1, Q9Y2H9
Sequence of MAST1, Q9Y2H9 (Q9Y2H9 962-1065): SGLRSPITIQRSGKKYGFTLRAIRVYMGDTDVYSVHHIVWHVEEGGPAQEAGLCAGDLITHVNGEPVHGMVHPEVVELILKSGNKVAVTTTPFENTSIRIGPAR

MAST2, Q6P0Q8 = target: MAST2, Q6P0Q8
Sequence of MAST2, Q6P0Q8 (Q6P0Q8 1099-1202): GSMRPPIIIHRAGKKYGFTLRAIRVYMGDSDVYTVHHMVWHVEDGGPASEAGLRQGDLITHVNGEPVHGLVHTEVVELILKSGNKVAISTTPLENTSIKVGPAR

PDLIM1, O00151 = target: PDLIM1, O00151
Sequence of PDLIM1, O00151 (O00151 1-87): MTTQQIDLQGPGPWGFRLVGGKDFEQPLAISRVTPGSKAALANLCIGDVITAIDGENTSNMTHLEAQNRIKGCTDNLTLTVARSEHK

PDZD2_2, O15018 = target: T3, PDZD2_2, O15018
RADIL, Q96JH8 = target: T4, RADIL, Q96JH8
SHANK1, Q9Y566 = target: T5, SHANK1, Q9Y566
SNTB1, Q13884 = target: T6, SNTB1, Q13884

Binder	pKd (APBA2_2, Q99767)	pKd (ARHGAP21, Q5T5U3)	pKd (DLG1_2, Q12959)	pKd (DLG2_3, Q15700)	pKd (DLG4_1, P78352)	pKd (DLG4_2, P78352)	pKd (DLG4_3, P78352)	pKd (FRMPD4, Q14CM0)	pKd (GIPC2, Q8TF65)	pKd (GORASP2, Q9H8Y8)	pKd (GRASP, Q7Z6J2)	pKd (GRID2IP_2, A4D2P6)	pKd (GRIP2_5, Q9C0E4)	pKd (HTRA1, Q92743)	pKd (HTRA2, O43464)	pKd (IL16_1, Q14005)	pKd (IL16_4, Q14005)	pKd (Inadl_1, Q8NI35)	pKd (Inadl_10, Q8NI35)	pKd (Inadl_6, Q8NI35)	further results
EDPRVEVTQF [SLC22A9, Q8IVM8]	below the threshold	below the threshold	below the threshold	3.71	below the threshold	below the threshold	below the threshold	below the threshold	below the threshold	below the threshold	5.02	below the threshold	below the threshold	3.49	below the threshold	below the threshold	below the threshold	below the threshold	below the threshold	below the threshold	pKd (LAP2, Q96RT1): below the threshold; pKd (LNX1_2, Q8TBB1): below the threshold; pKd (LNX1_3, Q8TBB1): below the threshold; pKd (MAGI2_4, Q86UL8): below the threshold; pKd (MAGI2_5, Q86UL8): 4.86; pKd (MAGI3_2, Q5TCQ9): below the threshold; pKd (MAST1, Q9Y2H9): 4.75; pKd (MAST2, Q6P0Q8): 5.4; pKd (PDLIM1, O00151): below the threshold; pKd (PDZD2_2, O15018): below the threshold; pKd (RADIL, Q96JH8): below the threshold; pKd (SHANK1, Q9Y566): 5.36; pKd (SNTB1, Q13884): below the threshold
LAHVKHKEQI [AQP3, Q92482]	below the threshold	3.98	below the threshold	below the threshold	below the threshold	below the threshold	below the threshold	below the threshold	below the threshold	below the threshold	below the threshold	below the threshold	below the threshold	below the threshold	below the threshold	below the threshold	below the threshold	below the threshold	below the threshold	below the threshold	pKd (LAP2, Q96RT1): below the threshold; pKd (LNX1_2, Q8TBB1): below the threshold; pKd (LNX1_3, Q8TBB1): below the threshold; pKd (MAGI2_4, Q86UL8): below the threshold; pKd (MAGI2_5, Q86UL8): below the threshold; pKd (MAGI3_2, Q5TCQ9): below the threshold; pKd (MAST1, Q9Y2H9): below the threshold; pKd (MAST2, Q6P0Q8): below the threshold; pKd (PDLIM1, O00151): below the threshold; pKd (PDZD2_2, O15018): below the threshold; pKd (RADIL, Q96JH8): below the threshold; pKd (SHANK1, Q9Y566): below the threshold; pKd (SNTB1, Q13884): below the threshold
APIAGFSSFV [SDK2, Q58EX2]	below the threshold	4.04	4.45	below the threshold	4.24	4.49	below the threshold	below the threshold	below the threshold	4.03	4.44	4.61	below the threshold	4.51	4.07	4.06	below the threshold	below the threshold	4.25	3.72	pKd (LAP2, Q96RT1): 4.17; pKd (LNX1_2, Q8TBB1): below the threshold; pKd (LNX1_3, Q8TBB1): below the threshold; pKd (MAGI2_4, Q86UL8): 3.94; pKd (MAGI2_5, Q86UL8): 4.44; pKd (MAGI3_2, Q5TCQ9): 4.27; pKd (MAST1, Q9Y2H9): below the threshold; pKd (MAST2, Q6P0Q8): 4.73; pKd (PDLIM1, O00151): below the threshold; pKd (PDZD2_2, O15018): 5.54; pKd (RADIL, Q96JH8): 5.17; pKd (SHANK1, Q9Y566): below the threshold; pKd (SNTB1, Q13884): 3.97
RFQQRMQTHV [KIRREL1, Q96J84]	below the threshold	below the threshold	4.74	4.48	4.32	4.64	4.4	below the threshold	below the threshold	4.12	4.35	3.96	below the threshold	below the threshold	below the threshold	below the threshold	below the threshold	below the threshold	below the threshold	below the threshold	pKd (LAP2, Q96RT1): below the threshold; pKd (LNX1_2, Q8TBB1): below the threshold; pKd (LNX1_3, Q8TBB1): below the threshold; pKd (MAGI2_4, Q86UL8): 3.76; pKd (MAGI2_5, Q86UL8): 3.74; pKd (MAGI3_2, Q5TCQ9): 5.37; pKd (MAST1, Q9Y2H9): 4.76; pKd (MAST2, Q6P0Q8): 5.73; pKd (PDLIM1, O00151): below the threshold; pKd (PDZD2_2, O15018): 4.4; pKd (RADIL, Q96JH8): 3.9; pKd (SHANK1, Q9Y566): 4.16; pKd (SNTB1, Q13884): below the threshold
REEPDHSTEV [CCRL2, O00421]	below the threshold	4.21	4.77	below the threshold	4.71	4.66	below the threshold	3.47	4.01	3.48	3.77	4.15	below the threshold	4.44	3.54	3.59	below the threshold	below the threshold	below the threshold	below the threshold	pKd (LAP2, Q96RT1): 4.15; pKd (LNX1_2, Q8TBB1): 3.65; pKd (LNX1_3, Q8TBB1): below the threshold; pKd (MAGI2_4, Q86UL8): 3.95; pKd (MAGI2_5, Q86UL8): 4.68; pKd (MAGI3_2, Q5TCQ9): below the threshold; pKd (MAST1, Q9Y2H9): 4.74; pKd (MAST2, Q6P0Q8): 5.3; pKd (PDLIM1, O00151): 3.53; pKd (PDZD2_2, O15018): 5.32; pKd (RADIL, Q96JH8): 3.96; pKd (SHANK1, Q9Y566): 4.13; pKd (SNTB1, Q13884): 4.36
